T1: recombinant human CLEC-1 protein with His Tag (#1704-CL R&D Systems) (human, UniProt Q8NC01 74-280)
T1 construct: Bought protein; also called His-CLEC1; His Clec-1; not shown: His tag
T1 sequence: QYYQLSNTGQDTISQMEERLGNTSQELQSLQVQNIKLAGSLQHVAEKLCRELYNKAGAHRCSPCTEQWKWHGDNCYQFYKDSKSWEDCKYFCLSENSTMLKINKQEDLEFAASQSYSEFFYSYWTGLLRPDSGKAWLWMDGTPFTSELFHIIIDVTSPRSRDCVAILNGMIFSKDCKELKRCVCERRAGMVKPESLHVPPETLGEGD

T2: Fc-CLEC1 labelled with Alexa Fluor 488 (human, Alexa Fluor 488 label (sites not given))
T2 construct: also called Fc-CLEC1-A488; Alexa488-Fc-Clec-1
T2 chain: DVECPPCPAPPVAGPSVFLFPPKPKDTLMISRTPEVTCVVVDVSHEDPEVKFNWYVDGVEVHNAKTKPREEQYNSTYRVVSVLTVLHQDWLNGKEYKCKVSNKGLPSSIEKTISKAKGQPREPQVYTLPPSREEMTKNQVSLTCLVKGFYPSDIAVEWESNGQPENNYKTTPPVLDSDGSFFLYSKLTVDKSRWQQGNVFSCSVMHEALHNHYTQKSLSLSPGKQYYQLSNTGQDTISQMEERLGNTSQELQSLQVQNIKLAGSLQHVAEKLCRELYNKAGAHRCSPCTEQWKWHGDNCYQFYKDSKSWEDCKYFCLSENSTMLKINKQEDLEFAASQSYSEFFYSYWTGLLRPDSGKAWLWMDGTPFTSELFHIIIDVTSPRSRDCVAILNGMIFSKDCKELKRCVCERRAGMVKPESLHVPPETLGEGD

T3: human CLEC-1A expressed on the cell membrane (human, UniProt Q8NC01 1-280)
T3 construct: Endogenous on human U266 myeloma cells, on monocyte-derived TGFb-DC and macrophages; on CHO cells after transduction with a Clec-1 expressing lentivirus; also called U266 CLEC1; CLEC-1A on U266 cells
T3 sequence: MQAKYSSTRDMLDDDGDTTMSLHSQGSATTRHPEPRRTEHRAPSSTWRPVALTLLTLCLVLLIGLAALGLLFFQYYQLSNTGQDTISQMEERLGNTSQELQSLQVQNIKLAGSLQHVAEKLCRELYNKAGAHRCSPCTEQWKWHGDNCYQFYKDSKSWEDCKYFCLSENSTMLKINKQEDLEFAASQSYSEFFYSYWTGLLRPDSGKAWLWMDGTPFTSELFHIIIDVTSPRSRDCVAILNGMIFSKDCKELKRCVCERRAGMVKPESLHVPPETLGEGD


Key:
[1] = molecular target: T1, recombinant human CLEC-1 protein with …; experiment: ELISA on immobilised His-CLEC1 (from FIGURE 12)
Procedure: (§1) Method: The binding activity of the anti-hCLEC1 antibodies was assessed by ELISA (Enzyme-linked immunosorbent assay). […] A second ELISA assays was performed, like above, with immobilization of CLEC1-Fc (OSE Immunotherapeutics) at 2 μg/ml. A third ELISA assays was performed to see the cross-reactivity with mouse CLEC1. Like above, ELISA was made with immobilization of mouse Fc-CLEC1 (OSE Immunotherapeutics) at 2 μg/ml in carbonate buffer instead of His-Clec. Purified antibodies were added at different concentrations to measure binding. […] Control antibody is a commercial anti-CLEC-1A antibody.

[2] = molecular target: T2, Fc-CLEC1 labelled with Alexa Fluor 488; experiment: FACS competition: blocks Fc-CLEC1-A488 (10 nM) binding to CLEC-1 ligand on permeabilised Raji cells; % binding cells
Procedure: (§2) To measure competition, purified anti-Clec antibodies at different concentrations were pre-incubated in Perm Wash Buffer with Alexa488-Fc-Clec-1 for 15 min at room temperature. Pre-incubated mixes were then incubated on permeabilized and Fc-blocked Raji cells for 30 min on ice. Binding on cells were then fixed by PFA 2% in cold PBS for 10 min on ice and analyzed on CytoFlex cytofluorometer (Beckman Coulter France, Villepinte).
(§3) Methods. To measure competition on permeabilised Raji (CytoFix/cytoperm kit, BD Biosciences) which expressed CLEC1 ligand, Fc-CLEC1-labelled A488 which bound specifically to permeabilised Raji was used. To measure competition, Fc-CLEC1 labelled A488 at 10 nM or 20 nM was mixed with mouse anti-hCLEC1 at different concentrations for 15 min at RT then added on these cells for 30 min at 4° C. […] To measure competition on PMBC, we used human PBMC pre-treated by UV for 18 h to obtain apoptotic PBMC, which expressed CLEC1 ligand. Fc-CLEC1-labelled A488 bound specifically apoptotic UV-treated PBMC. To measure competition, Fc-CLEC1 labelled A488 at 10 nM was mixed with mouse anti-hCLEC1 at different concentrations for 15 min at RT then added on these cells for 30 min at 4° C.

[3] = molecular target: T3, human CLEC-1A expressed on the cell …; experiment: flow cytometry on U266 cells
Procedure: (§4) Method: To measure binding of anti-CLEC1 on human U266 cell lines (pre-blocked with Fcblock to blocking FcR), antibodies at different concentrations were incubated for 30 min at 4° C., and washed before stained 30 min at 4° C. with PE-labelled anti-human IgG (Biolegend; reference 409304). Samples were analyzed on Cytoflex cytofluorometer (Beckman Coulter). The MFI of anti-CLEC1 was compared between all anti-CLEC1 antibodies and percentage of stained cells was analysed in all conditions.

[4] = molecular target: T1, recombinant human CLEC-1 protein with …; experiment: Blitz biolayer interferometry, His-CLEC1 on Ni-NTA biosensor, antibody at 20 ug/mL
[5] = molecular target: T1, recombinant human CLEC-1 protein with …; experiment: BLI (Blitz), CLEC1-His on Ni-NTA biosensor, antibody at 20 ug/mL; chimeric antibody, FIG. 17
Procedure: Analysis was performed with a BLItz System (Fortébio, #C22-2 No 61010-1, Molecular Devices, San José, USA).
The affinity of the anti-hCLEC1 antibodies, was measured with Blitz system (Forté Bio, C22-2 No 61010-1).

[6] = molecular target: T2, Fc-CLEC1 labelled with Alexa Fluor 488; experiment: FACS competition: blocks Fc-CLEC1-A488 (10 nM) binding to CLEC-1 ligand on UV-treated PBMC
Procedure: (§5) Competition were also measured on UV pre-treated pro-apoptotic human PBMCs, which can also express the ligand after a treatment under UV radiation for 18 hours. After UV treatment, cells were first washed in cold-PSE and then blocked during 30 min at room temperature with human Fc-block 50-fold diluted in PSE, and then replaced on ice. Purified anti-Clec antibodies at different concentrations were pre-incubated with Alexa488-Fc-Clec-1 in PSE at different concentrations for 15 min at room temperature. Pre-incubated mixes were then incubated on Fc-blocked/SAB (#34005-100, Invitrogen, Illkirch, France) pro-apoptotic PBMCs for 30 min on ice. Binding on cells were then fixed by PFA 2% in cold PBS for 10 min on ice and analyzed on CytoFlex cytofluorometer (Beckman Coulter France, Villepinte).
as §3

[7] = molecular target: T3, human CLEC-1A expressed on the cell …; experiment: flow cytometry on U266 cells, PE anti-human IgG; median fluorescence
Procedure: as §4

[8] = molecular target: T3, human CLEC-1A expressed on the cell …; experiment: flow cytometry on U266 cells, PE anti-human IgG; % positive cells
Procedure: as §4

[9] = molecular target: T2, Fc-CLEC1 labelled with Alexa Fluor 488; experiment: FACS competition: blocks Fc-CLEC1-A488 (10 nM) binding to CLEC-1 ligand on permeabilised Raji cells; IC50 median
Procedure: as §2, §3

[10] = molecular target: T2, Fc-CLEC1 labelled with Alexa Fluor 488; experiment: FACS competition: blocks Fc-CLEC1-A488 (10 nM) binding to CLEC-1 ligand on UV-treated PBMC; % binding
Procedure: as §5, §3

[11] = molecular target: T3, human CLEC-1A expressed on the cell …; experiment: flow cytometry on CHO-Clec-1 cells (from FIGURE 21)
Procedure: (§6) To measure binding of anti-clec on CHO-Clec-1 cells, human Fc Receptor Binding Inhibitor diluted at 1/200 (BD pharmingen; USA; reference 564220) was first added for 30 min at room-temperature to block human Fc receptors on CHO-Clec-1 cells to reduce background. Then, antibodies were incubated for 30 min at 4° C., and washed before stained 15 min at 4° C. with PE-labelled anti-human IgG Fc (Biolegend; USA; reference 409303). Samples were analyzed on citoflex (Beckman coulter)

[12] = molecular target: T1, recombinant human CLEC-1 protein with …; experiment: ELISA on immobilised His-CLEC1, anti-human IgG peroxidase
[13] = molecular target: T1, recombinant human CLEC-1 protein with …; experiment: ELISA on immobilised His-CLEC1 (from FIGURE 14)
Procedure: as §1

[14] = molecular target: T3, human CLEC-1A expressed on the cell …; experiment: flow cytometry on CHO-Clec-1 cells, revealed with anti-hFc-PE; % positive cells
Procedure: as §6

[15] = molecular target: T3, human CLEC-1A expressed on the cell …; experiment: flow cytometry on CHO-Clec-1 cells, revealed with anti-hFc-PE; median fluorescence
Procedure: as §6

Row | Binder | EC50 [1] [µg/mL] | IC50 (read off the curve) [2] [nM] | EC50 [3] [µg/mL] | Kd [4] [nM] | koff [4] [s⁻¹] | kon [4] [M⁻¹ s⁻¹] | Kd [5] [nM] | IC50 [6] [µg/mL] | EC50 (read off the curve) [7] [µg/mL] | EC50 (read off the curve) [8] [µg/mL] | IC50 [9] [nM] | IC50 (read off the curve) [10] [µg/mL] | EC50 [11] [µg/mL] | EC50 (read off the curve) [12] [µg/mL] | EC50 [13] [µg/mL] | EC50 (read off the curve) [14] [µg/mL] | EC50 (read off the curve) [15] [µg/mL]
1 | chimeric anti-CLEC-1A antibody 5D1 (antibody, human IgG4 S228P, kappa, V domains shown, also called 5D1chim; 5D1-VHwt-FcG4m / 5D1-VLwt-CLhk) VH: QVQLKESGPGLVAPSQSLSITCTISGFSLTSYGVHWVRQPPGKGLEWLVVIWSDGSTIYNSALKSRLSISKDNSKSQVFLKMNSLQTDDTAMYYCARHGGYYNYFDYWGQGTTLTVSS VL: DIQMNQSPSSLSASLGDTITITCHASQNINVWLSWYQQKPGNIPKLLIYKASNLHTGVPSRFSGSGSGTGFTLTISSLQPEDIATYYCQQGQSYWTFGGGTKLEIKR | 0.164 | ~10 | 0.0847 | 17.4 | 0.0012 | 68900 | ~10 | 1.19 | ~0.06 | ~0.06 | 13.7 | ~0.8 |  |  |  |  | 
2 | chimeric anti-CLEC-1A antibody 15E3 (antibody, human IgG4 S228P, kappa, V domains shown, also called 15E3chim; 15E3-VHwt-FcG4m / 15E3-VLwt-CLhk) VH: QVQLQQSGPELVKPGASVKMSCKASGFTFTDYVIAWVKVRTGQGLEWIGEIYPGSGSIYYNEKFKGKATLTADKSSNTAYMQLSSLTSEDSAVYFCASSTVVAFDYWGQGTTLTVSS VL: EIVLTQSPTTLAASPGEKIIITCSDSSSISSNYLHWYQQKPGFSPKLLIYGTSNLASGVPARFSGSGSGTTYSLTIGTMEAEDVATYYCQQGSSIPRTFGGGTKLEIKR | 0.0215 |  | 0.251 | 108 | 0.00169 | 15700 |  | 0.779 |  |  | 8.67 | ~1 | 0.123 | ~0.02 |  |  | 
3 | chimeric anti-CLEC-1A antibody 11H11 (antibody, human IgG4 S228P, kappa, V domains shown, also called 11H11chim; 11H11-VHwt-FcG4m / 11H11-VLwt-CLhk) VH: QIHLVQSGPELKKPGETVKISCKASGYTFTNFGMNWVKQAPGKGLKWMGWINTNTGEPTYADDFKGRFAFSLETSASTAYLQINNLKNEDTATYFCARGAPAWFTYWGQGTLVTVSA VL: DIQMTQSPASLSASVGETVTITCRATENIYSYLAWYQQKQGKSPQFLVYNAKTLAEGMPSRFSGSGSGTQFSLKINILQPEDFGTYYCQHHFGTPLTFGAGTKLELKR |  |  | 1.12 | 0.448 | 0.00019 | 188000 |  |  |  |  | 5.84 |  | 1.38 |  | 0.00846 |  | 
4 | chimeric anti-CLEC-1A antibody 6C5 (antibody, human IgG4 S228P, kappa, V domains shown, also called 6C5chim; 6C5-VHwt-FcG4m / 6C5-VLwt-CLhk) VH: QVQLQQSGPELVKPGASVKMSCKASGYTFTDYVISWVKQKTGQGLEWIGEIYPGSGNTYYNEKFKGKATLTADKSSSTAYIHLSSLTSEDSAVYFCAGGGSSHFDYWGQGTTLTVSS VL: not shown | 0.326 |  | 0.258 | 40.3 | 0.00179 | 44500 |  | 0.626 | ~0.3 | ~0.2 | 7.71 |  | 0.123 |  |  | ~0.1 | ~0.1

— patent US20230331852A1 (OSE IMMUNOTHERAPEUTICS, published 2023)
